{"source": "patent CN114028561A", "target": "天然TSLP", "assay": "cell-based or functional assay", "data": [{"substance": "Tezepelumab (antibody)", "values": [{"measurement": "IC50 of inhibition of natural TSLP-induced STAT5 phosphorylation in SW756-STAT5-Luciferase reporter cells", "result": 1.45, "unit": "ng/mL"}]}]}
